Drawing on paper PMC8458281, “Computational modeling and experimental validation of the EPI-X4/CXCR4 complex allows rational design of small peptide antagonists” (Communications Biology, 2021), this text covers IC50 for 16 variants.

B1: EPI-X4 JM#21 [human] / CXCR4 wt (transfected 293T cells) [human] (parent complex)
chain 1: ILRWSRKLPCVS
chain 2: MEGISIYTSDNYTEEMGSGDYDSMKEPCFREENANFNKIFLPTIYSIIFLTGIVGNGLVILVMGYQKKLRSMTDKYRLHLSVADLLFVITLPFWAVDAVANWYFGNFLCKAVHVIYTVNLYSSVLILAFISLDRYLAIVHATNSQRPRKLLAEKVVYVGVWIPALLLTIPDFIFANVSEADDRYICDRFYPNDLWVVVFQFQHIMVGLILPGIVILSCYCIIISKLSHSKGHQKRKALKTTVILILAFFACWLPYYIGISIDSFILLEIIKQGCEFENTVHKWISITEALAFFHCCLNPILYAFLGAKFKTSAQHALTSVSRGSSLKILSKGKRGGHSSVSTESESSSFHSS
B2: WSC02 [human] / CXCR4 wt (transfected 293T cells) [human] (parent complex)
chain 1: IVRWSKKVPCVS
chain 2: B1 chain 2

The variants in one test derive from B1. Put plainly: 12G5 antibody competition assay, flow cytometry on transfected 293T cells; 2 h incubation; IC50 set to 100 µM if above the maximally used concentration; parent: 620 nM; read off a plot. For orientation: Flow cytometry measures light scatter and fluorescence of single cells or particles in a stream.
Regarding chain 2 MEGISIYTSDNYTEEMGSGDYDSMKEPCFREENANFNKIFAPTIYSIIFLTGIVGNGLVILVMGYQKKLRSMTDKYRLHLSVADLLFVITLPFWAVDAVANWYFGNFLCKAAHVIYTVNLYSSVLILAFISLDRYLAIVHATNSQRPRKLLAEKVVYVGVWIPALLLTIPDFIFANVSEADDRYICDRFYPNDLWVVVFQFQHIMVGLILPGIVILSCYCIIISKLSHSKGHQKRKALKTTVILILAFFACWLPYYIGISIDSFILLEIIKQGCEFENTVHKWISITEALAFFHCCLNPILYAFLGAKFKTSAQHALTSVSRGSSLKILSKGKRGGHSSVSTESESSSFHSS [chain 2 L41A, chain 2 V112A], the IC50 was around 630 nM.
The same measure, in the same setting: the same measure for chain 2 MEGISIYTSDNYTEEMGSGDYDSMKEPCFREENANFNKIFLPTIYSIIFLTGIVGNGLVILVMGYQKKLRSMTDKYRLHLSVADLLFVITLPFWAVDAVANWYFGNFLCKALHVIYTVNLYSSVLILAFISLDRYLAIVHATNSQRPRKLLAEKVVYVGVWIPALLLTIPDFIFANVSEADDRYICDRFYPNDLWVVVFQFQHIMVGLILPGIVILSCYCIIISKLSHSKGHQKRKALKTTVILILAFFACWLPYYIGISIDSFILLEIIKQGCEFENTVHKWISITEALAFFHCCLNPILYAFLGAKFKTSAQHALTSVSRGSSLKILSKGKRGGHSSVSTESESSSFHSS [chain 2 V112L]: around 400 nM; for chain 2 MEGISIYTSDNYTEEMGSGDYDSMKEPCFREENANFNKIFLPTIYSIIFLTGIVGNGLVILVMGYQKKLRSMTDKYRLHLSVADLLFVITLPFWAVDAVANWYFGNFLCKAAHVIYTVNLYSSVLILAFISLDRYLAIVHATNSQRPRKLLAEKVVYVGVWIPALLLTIPDFIFANVSEADDRYICDRFYPNDLWVVVFQFQHIMVGLILPGIVILSCYCIIISKLSHSKGHQKRKALKTTVILILAFFACWLPYYIGISIDSFILLEIIKQGCEFENTVHKWISITEALAFFHCCLNPILYAFLGAKFKTSAQHALTSVSRGSSLKILSKGKRGGHSSVSTESESSSFHSS [chain 2 V112A]: around 3400 nM.
On the same count and under the same terms, the same measure for chain 2 MEGISIYTSDNYTEEMGSGDYDSMKEPCFREENANFNKIFAPTIYSIIFLTGIVGNGLVILVMGYQKKLRSMTDKYRLHLSVADLLFVITLPFWAVDAVANWYFGNFLCKAVHVIYTVNLYSSVLILAFISLDRYLAIVHATNSQRPRKLLAEKVVYVGVWIPALLLTIPDFIFANVSEADDRYICDRFYPNDLWVVVFQFQHIMVGLILPGIVILSCYCIIISKLSHSKGHQKRKALKTTVILILAFFACWLPYYIGISIDSFILLEIIKQGCEFENTVHKWISITEALAFFHCCLNPILYAFLGAKFKTSAQHALTSVSRGSSLKILSKGKRGGHSSVSTESESSSFHSS [chain 2 L41A]: around 650 nM; for chain 2 MEGISIYTSDNYTEEMGSGDYDSMKEPCFREENANFNKIFLPTIYSIIFLTGIVGNGLVILVMGYQKKLRSMTDKYRLHLSVADLLFVITLPFWAVDAVANWYFGNFLCKAVHVIYTVNLYSSVLILAFISLDRYLAIVHATNSQRPRKLLAEKVVYVGVWIPALLLTIPDFIFANVSEADDRYICDRFYPNDLWVVVFQFQHIMVGLILPGIVILSCYCIIISKLSHSKGHQKRKALKTTVILILAFFACWLPYYIGISIDSFILLEIIKQGCEFANTVHKWISITEALAFFHCCLNPILYAFLGAKFKTSAQHALTSVSRGSSLKILSKGKRGGHSSVSTESESSSFHSS [chain 2 E277A]: around 270 nM; for chain 2 MEGISIYTSDNYTEEMGSGDYDSMKEPCFREENANFNKIFLPTIYSIIFLTGIVGNGLVILVMGYQKKLRSMTDKYRLHLSVADLLFVITLPFWAVDAVANWYFGNFLCKAVHVIYTVNLYSSVLILAFISLDRYLAIVHATNSQRPRKLLAEKVVYVGVWIPALLLTIPDFIFANVSEADDRYICDRFYPNDLWVVVFQFQHIMVGLILPGIVILSCYCIIISKLSHSKGHQKRKALKTTVILILAFFACWLPYYIGISIASFILLEIIKQGCEFENTVHKWISITEALAFFHCCLNPILYAFLGAKFKTSAQHALTSVSRGSSLKILSKGKRGGHSSVSTESESSSFHSS [chain 2 D262A]: around 220 nM.
For the variant chain 2 MEGISIYTSDNYTEEMGSGDYDSMKEPCFREENANFNKIFLPTIYSIIFLTGIVGNGLVILVMGYQKKLRSMTDKYRLHLSVADLLFVITLPFWAVSAVANWYFGNFLCKAVHVIYTVNLYSSVLILAFISLDRYLAIVHATNSQRPRKLLAEKVVYVGVWIPALLLTIPDFIFANVSEADDRYICDRFYPNDLWVVVFQFQHIMVGLILPGIVILSCYCIIISKLSHSKGHQKRKALKTTVILILAFFACWLPYYIGISIDSFILLEIIKQGCEFENTVHKWISITEALAFFHCCLNPILYAFLGAKFKTSAQHALTSVSRGSSLKILSKGKRGGHSSVSTESESSSFHSS [chain 2 D97S], the IC50 was around 5400 nM.
Still for that read-out and setting: in the case of chain 2 MEGISIYTSDNYTEEMGSGDYDSMKEPCFREENANFNKIFLPTIYSIIFLTGIVGNGLVILVMGYQKKLRSMTDKYRLHLSVADLLFVITLPFWAVTAVANWYFGNFLCKAVHVIYTVNLYSSVLILAFISLDRYLAIVHATNSQRPRKLLAEKVVYVGVWIPALLLTIPDFIFANVSEADDRYICDRFYPNDLWVVVFQFQHIMVGLILPGIVILSCYCIIISKLSHSKGHQKRKALKTTVILILAFFACWLPYYIGISIDSFILLEIIKQGCEFENTVHKWISITEALAFFHCCLNPILYAFLGAKFKTSAQHALTSVSRGSSLKILSKGKRGGHSSVSTESESSSFHSS [chain 2 D97T] it was around 3700 nM; in that of chain 2 MEGISIYTSDNYTEEMGSGDYDSMKEPCFREENANFNKIFLPTIYSIIFLTGIVGNGLVILVMGYQKKLRSMTDKYRLHLSVADLLFVITLPFWAVEAVANWYFGNFLCKAVHVIYTVNLYSSVLILAFISLDRYLAIVHATNSQRPRKLLAEKVVYVGVWIPALLLTIPDFIFANVSEADDRYICDRFYPNDLWVVVFQFQHIMVGLILPGIVILSCYCIIISKLSHSKGHQKRKALKTTVILILAFFACWLPYYIGISIDSFILLEIIKQGCEFENTVHKWISITEALAFFHCCLNPILYAFLGAKFKTSAQHALTSVSRGSSLKILSKGKRGGHSSVSTESESSSFHSS [chain 2 D97E], around 1800 nM.
Same read-out and setting: the same measure for chain 2 MEGISIYTSDNYTEEMGSGDYDSMKEPCFREENANFNKIFLPTIYSIIFLTGIVGNGLVILVMGYQKKLRSMTDKYRLHLSVADLLFVITLPFWAVQAVANWYFGNFLCKAVHVIYTVNLYSSVLILAFISLDRYLAIVHATNSQRPRKLLAEKVVYVGVWIPALLLTIPDFIFANVSEADDRYICDRFYPNDLWVVVFQFQHIMVGLILPGIVILSCYCIIISKLSHSKGHQKRKALKTTVILILAFFACWLPYYIGISIDSFILLEIIKQGCEFENTVHKWISITEALAFFHCCLNPILYAFLGAKFKTSAQHALTSVSRGSSLKILSKGKRGGHSSVSTESESSSFHSS [chain 2 D97Q]: around 8000 nM; for chain 2 MEGISIYTSDNYTEEMGSGDYDSMKEPCFREENANFNKIFLPTIYSIIFLTGIVGNGLVILVMGYQKKLRSMTDKYRLHLSVADLLFVITLPFWAVEAVANWYFGNFLCKAAHVIYTVNLYSSVLILAFISLDRYLAIVHATNSQRPRKLLAEKVVYVGVWIPALLLTIPDFIFANVSEADDRYICDRFYPNDLWVVVFQFQHIMVGLILPGIVILSCYCIIISKLSHSKGHQKRKALKTTVILILAFFACWLPYYIGISIDSFILLEIIKQGCEFENTVHKWISITEALAFFHCCLNPILYAFLGAKFKTSAQHALTSVSRGSSLKILSKGKRGGHSSVSTESESSSFHSS [chain 2 D97E, chain 2 V112A]: around 460 nM.
Still for that read-out and setting: the same measure for chain 2 MEGISIYTSDNYTEEMGSGDYDSMKEPCFREENANFNKIFLPTIYSIIFLTGIVGNGLVILVMGYQKKLRSMTDKYRLHLSVADLLFVITLPFWAVEAVANWYFGNFLCKALHVIYTVNLYSSVLILAFISLDRYLAIVHATNSQRPRKLLAEKVVYVGVWIPALLLTIPDFIFANVSEADDRYICDRFYPNDLWVVVFQFQHIMVGLILPGIVILSCYCIIISKLSHSKGHQKRKALKTTVILILAFFACWLPYYIGISIDSFILLEIIKQGCEFENTVHKWISITEALAFFHCCLNPILYAFLGAKFKTSAQHALTSVSRGSSLKILSKGKRGGHSSVSTESESSSFHSS [chain 2 D97E, chain 2 V112L]: around 380 nM.

Another test covers variants of B2. Put plainly: 12G5 antibody competition assay, flow cytometry on transfected 293T cells; 2 h incubation; IC50 set to 1000 µM if above the maximally used concentration; parent: 1e+03 nM; read off a plot.
On to chain 2 MEGISIYTSDNYTEEMGSGDYDSMKEPCFREENANFNKIFLPTIYSIIFLTGIVGNGLVILVMGYQKKLRSMTDKYRLHLSVADLLFVITLPFWAVEAVANWYFGNFLCKAAHVIYTVNLYSSVLILAFISLDRYLAIVHATNSQRPRKLLAEKVVYVGVWIPALLLTIPDFIFANVSEADDRYICDRFYPNDLWVVVFQFQHIMVGLILPGIVILSCYCIIISKLSHSKGHQKRKALKTTVILILAFFACWLPYYIGISIDSFILLEIIKQGCEFENTVHKWISITEALAFFHCCLNPILYAFLGAKFKTSAQHALTSVSRGSSLKILSKGKRGGHSSVSTESESSSFHSS [chain 2 D97E, chain 2 V112A], for which the IC50 was around 1700 nM.
Still for that read-out and setting: in the case of chain 2 MEGISIYTSDNYTEEMGSGDYDSMKEPCFREENANFNKIFLPTIYSIIFLTGIVGNGLVILVMGYQKKLRSMTDKYRLHLSVADLLFVITLPFWAVEAVANWYFGNFLCKALHVIYTVNLYSSVLILAFISLDRYLAIVHATNSQRPRKLLAEKVVYVGVWIPALLLTIPDFIFANVSEADDRYICDRFYPNDLWVVVFQFQHIMVGLILPGIVILSCYCIIISKLSHSKGHQKRKALKTTVILILAFFACWLPYYIGISIDSFILLEIIKQGCEFENTVHKWISITEALAFFHCCLNPILYAFLGAKFKTSAQHALTSVSRGSSLKILSKGKRGGHSSVSTESESSSFHSS [chain 2 D97E, chain 2 V112L] it was around 1700 nM; in that of chain 2 MEGISIYTSDNYTEEMGSGDYDSMKEPCFREENANFNKIFLPTIYSIIFLTGIVGNGLVILVMGYQKKLRSMTDKYRLHLSVADLLFVITLPFWAVTAVANWYFGNFLCKAVHVIYTVNLYSSVLILAFISLDRYLAIVHATNSQRPRKLLAEKVVYVGVWIPALLLTIPDFIFANVSEADDRYICDRFYPNDLWVVVFQFQHIMVGLILPGIVILSCYCIIISKLSHSKGHQKRKALKTTVILILAFFACWLPYYIGISIDSFILLEIIKQGCEFENTVHKWISITEALAFFHCCLNPILYAFLGAKFKTSAQHALTSVSRGSSLKILSKGKRGGHSSVSTESESSSFHSS [chain 2 D97T], around 30000 nM.
On the same count and under the same terms, in the case of chain 2 MEGISIYTSDNYTEEMGSGDYDSMKEPCFREENANFNKIFLPTIYSIIFLTGIVGNGLVILVMGYQKKLRSMTDKYRLHLSVADLLFVITLPFWAVDAVANWYFGNFLCKAVHVIYTVNLYSSVLILAFISLDRYLAIVHATNSQRPRKLLAEKVVYVGVWIPALLLTIPDFIFANVSEADDRYICDRFYPNDLWVVVFQFQHIMVGLILPGIVILSCYCIIISKLSHSKGHQKRKALKTTVILILAFFACWLPYYIGISIASFILLEIIKQGCEFENTVHKWISITEALAFFHCCLNPILYAFLGAKFKTSAQHALTSVSRGSSLKILSKGKRGGHSSVSTESESSSFHSS [chain 2 D262A] it was around 450 nM.

As a reminder, the IC50 is the concentration needed to halve the response being measured.
